Data published in publication PMC3433420, “Comprehensive Binary Interaction Mapping of SH2 Domains via Fluorescence Polarization Reveals Novel Functional Diversification of ErbB Receptors” (PLoS ONE, 2012).
Where “and” joins values, the source holds several entries; their conditions need not be identical. Equal values may be shown once. Non-standard residues stand in square brackets, D forms with d. No end group written: not given here. pY = N[C@@H](Cc1ccc(OP(=O)(O)O)cc1)C(=O)O; Rhodamine = not defined here

Columns and labels:
Test in all cases: peptide or protein array; SH2/PTB proteins spotted on aldehyde slides, rhodamine peptide titrated in buffer B (20 mM HEPES, 100 mM KCl, 0.1% Tween-20, 5 mM DTT, pH 7.8), 1 h at room temperature; replicate assays
Conditions in all cases: both partners purified
ABL1 SH2 domain = target: T1, ABL1 SH2 domain (human, UniProt P00519 127-217)
T1 construct: ABL1, human; source: bacterial expression, purified
T1 sequence (looked up): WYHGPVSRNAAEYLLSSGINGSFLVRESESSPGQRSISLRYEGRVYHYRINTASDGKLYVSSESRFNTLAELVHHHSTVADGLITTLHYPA

PTK6 SH2 domain = target: T2, PTK6 SH2 domain (human, UniProt Q13882 78-170)
T2 construct: PTK6, human; source: bacterial expression, purified
T2 sequence (Q13882 78-170): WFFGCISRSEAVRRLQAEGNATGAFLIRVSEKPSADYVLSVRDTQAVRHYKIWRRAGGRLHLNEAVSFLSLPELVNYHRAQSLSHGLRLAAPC

SHF SH2 domain = target: T3, SHF SH2 domain (human, UniProt Q7M4L6 323-418)
T3 construct: SHF, human; source: bacterial expression, purified
T3 sequence (looked up): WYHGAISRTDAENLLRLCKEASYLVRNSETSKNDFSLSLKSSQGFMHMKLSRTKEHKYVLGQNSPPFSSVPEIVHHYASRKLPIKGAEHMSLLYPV

CRK SH2 domain = target: T4, CRK SH2 domain (human, UniProt P46108 13-118)
T4 construct: CRK, human; source: bacterial expression, purified
T4 sequence (P46108 13-118): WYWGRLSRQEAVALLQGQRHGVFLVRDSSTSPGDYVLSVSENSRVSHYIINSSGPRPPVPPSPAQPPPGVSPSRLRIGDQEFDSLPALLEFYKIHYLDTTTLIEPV

Binder: Rhodamine-ETDG[pY]VAPLTCSD (reading uncertain) [ErbB2 pY1127 phosphopeptide, rhodamine-labelled, for protein microarrays]
- Kd (ABL1 SH2 domain): 529 nM and 301 nM
- Kd (PTK6 SH2 domain): 4180 nM and 1570 nM
- Kd (SHF SH2 domain): 1020 nM
- Kd (CRK SH2 domain): 7710 nM
